In PMC12122975, “Structures of the Escherichia coli type 1 pilus during pilus rod assembly and after assembly termination” (Nature Communications, 2025):

B1: FimCHis, His-tagged type 1 pilus assembly chaperone FimC (natural protein)
chain: GVALGATRVIYPAGQKQEQLAVTNNDENSTYLIQSWVENADGVKDGRFIVTPPLFAMKGKKENTLRILDATNNQLPQDRESLFWMNVKAIPSMDKSKLTENTLQLAIISRIKLYYRPAKLALPPDQAAEKLRFRRSANSLTLINPTPYYLTVTELNAGTRVLENALVPPMGESTVKLPSDAGSNITYRTINDYGALTPKMTGVME
notes: source: E. coli BL21(DE3) (pFimCHis-cyt), purified (HisTrap, Source 30S); also co-expressed with FimD and FimH in E. coli Tuner (pETS1001) and purified as FimDCH
B2: FimC, type 1 pilus assembly chaperone (untagged) (natural protein)
chain: GVALGATRVIYPAGQKQEQLAVTNNDENSTYLIQSWVENADGVKDGRFIVTPPLFAMKGKKENTLRILDATNNQLPQDRESLFWMNVKAIPSMDKSKLTENTLQLAIISRIKLYYRPAKLALPPDQAAEKLRFRRSANSLTLINPTPYYLTVTELNAGTRVLENALVPPMGESTVKLPSDAGSNITYRTINDYGALTPKMTGVME
notes: source: E. coli BL21(DE3) (pFimC-cyt), purified (Q Sepharose, Source 30S, Phenyl Sepharose); also co-expressed with FimF or FimG in E. coli HM125 and purified from periplasmic extract as FimFC or FimGC
B3: FimI, assembly terminator subunit of the type 1 pilus (natural protein)
chain: GNKWNTTLPGGNMQFQGVIIAETCRIEAGDKQMTVNMGQISSNRFHAVGEDSAPVPFVIHLRECSTVVSERVGVAFHGVADGKNPDVLSVGEGPGIATNIGVALFDDEGNLVPINRPPANWKRLYSGSTSLHFIAKYRATGRRVTGGIANAQAWFSLTYQ

Assays:
Assay in all cases: cryo-EM structure
[1] = target: T1, FimD, type 1 pilus assembly platform (usher) (E. coli, UniProt P30130 46-878); details: both partners purified
T1 sequence: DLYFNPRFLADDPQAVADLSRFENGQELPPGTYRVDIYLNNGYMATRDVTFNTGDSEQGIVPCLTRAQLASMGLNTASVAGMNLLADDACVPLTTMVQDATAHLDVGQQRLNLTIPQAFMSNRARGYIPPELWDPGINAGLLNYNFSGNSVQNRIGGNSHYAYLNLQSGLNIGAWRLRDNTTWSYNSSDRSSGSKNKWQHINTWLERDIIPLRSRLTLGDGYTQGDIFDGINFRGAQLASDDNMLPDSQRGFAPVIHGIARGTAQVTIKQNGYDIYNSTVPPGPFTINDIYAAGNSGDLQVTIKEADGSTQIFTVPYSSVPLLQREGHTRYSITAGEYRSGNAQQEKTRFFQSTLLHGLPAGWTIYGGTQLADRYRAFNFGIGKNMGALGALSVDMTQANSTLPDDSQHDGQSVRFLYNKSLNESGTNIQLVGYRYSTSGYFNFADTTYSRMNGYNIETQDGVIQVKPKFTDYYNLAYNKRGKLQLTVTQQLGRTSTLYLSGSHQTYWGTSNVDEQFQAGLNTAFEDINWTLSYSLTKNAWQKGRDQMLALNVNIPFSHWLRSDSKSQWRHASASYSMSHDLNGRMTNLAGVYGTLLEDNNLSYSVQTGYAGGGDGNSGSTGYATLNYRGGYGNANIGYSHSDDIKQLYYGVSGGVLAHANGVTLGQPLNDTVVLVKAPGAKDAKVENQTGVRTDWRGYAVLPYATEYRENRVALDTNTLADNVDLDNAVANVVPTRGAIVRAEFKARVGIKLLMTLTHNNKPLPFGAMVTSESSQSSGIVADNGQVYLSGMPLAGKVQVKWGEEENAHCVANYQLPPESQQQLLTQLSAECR

[2] = target: B1; details: both partners purified
cryo-EM structure = target: the molecule itself
[3] = target: B2; details: both partners purified
[4] = target: B3; details: both partners purified

Row | Binder | binding result [1] | binding result [2] | binding result (cryo-EM structure) | binding result [3] | binding result [4]
1 | B1 | binds |  |  |  | 
2 | B2 | binds |  |  |  | 
3 | B3 | binds | binds | binds |  | 
4 | FimA, main subunit of the type 1 pilus rod (natural protein, also called FimAn; FimAn-1) AATTVNGGTVHFKGEVVNAACAVDAGSVDQTVQLGQVRTASLAQEGATSSAVGFNIQLNDCDTNVASKAAVAFLGTAIDAGHTNVLALQSSAAGSATNVGVQILDRTGAALTLDGATFSSETTLNNGTNTIPFQARYFATGAATPGAANADATFKVQYQ | binds | binds | binds | binds | binds
